This is an account of results in patent publication US20040019926A1 (CROPDESIGN N V, published 2004).

Experiment [1] has as its target T1, rice cyclin-dependent kinase Cdc2-Os1 (rice, UniProt P29618 1-294).
T1 construct: The Gal4 parts are not written into the chain
Briefly: yeast two-hybrid, Cdc2-Os1 in prey pADGal4 with empty pBDGal4. The text has this: (§1) The interactions of OsICK2 and OsICK4 with Cdc2-Os1 and CycD3-Os (the rice cyclin D3) were verified using a yeast two hybrid approach. In a preliminary step, yeast strain PJ69-4A (MATa trp1-901 leu2-3,112 ura3-52 his3-200 gal4(deleted) gal80(deleted) LYS2::GAL1-HIS3 GAL2-ADE2 met2::GAL7-lacZ) was transformed with Cdc2-Os1 in bait vector pBDGal4 (Stratagene), using the lithium acetate method, well known to those skilled in the art. The rice Cdc2-Os1 was previously obtained by PCR as described in Example 1. The Cdc2-Os1 was also cloned in the pADGal4 prey vector. The junctions between the pBDGal4 binding domain and the pADGal4 activation domain and the Cdc2-Os1 fragment were sequenced to verify correct in-frame fusion.
(§2) Two putative positive clones were identified. A second round of screening on these clones was performed. Pure positive plaques were isolated and phagemids were excised therefrom. Sequencing of the two clones reveiled that the clones were identical with a full length size of 1.7 kb. The clones contain an ORF of 1140 bp encoding a protein of 380 amino acids. This protein is designated cyclin D3 from rice (CycD3-Os). […]
(§3) As positive controls, growth was assessed in yeast containing the prey vector pADGal4 with Cdc2-Os1 and retransformed with the bait vector pBDGal4 containing OsICK2 or CycD3-Os. […]

Experiment [2] concerns the target T2, full-length rice OsICK2 protein (Oryza sativa, UniProt A2X9W8 1-262).
T2 construct: The Gal4 parts are not written into the chain; Form 'mature' here means the full-length protein; also called Os2
T2 sequence: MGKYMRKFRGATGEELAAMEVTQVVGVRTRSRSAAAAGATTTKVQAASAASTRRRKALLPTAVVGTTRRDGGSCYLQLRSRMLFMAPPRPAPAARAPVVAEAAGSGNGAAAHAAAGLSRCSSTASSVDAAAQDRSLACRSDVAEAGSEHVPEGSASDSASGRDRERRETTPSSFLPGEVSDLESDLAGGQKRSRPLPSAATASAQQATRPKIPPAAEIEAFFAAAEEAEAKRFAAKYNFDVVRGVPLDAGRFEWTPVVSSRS
Briefly: yeast two-hybrid, OsICK2 in prey pADGal4 with empty pBDGal4.
Excerpt: as §1, §2, §3

Experiment [3] addresses T1, rice cyclin-dependent kinase Cdc2-Os1. Briefly: yeast two-hybrid, Cdc2-Os1 in bait pBDGal4 with empty prey pADGal4.
Excerpt: as §1, §2, §3

Experiment [4] addresses T2, full-length rice OsICK2 protein. Nature of the experiment: yeast two-hybrid, OsICK2 in bait pBDGal4 with empty prey pADGal4.
Excerpt: as §1, §2, §3

T1 sequence (P29618 whole entry, the tested form may be a part): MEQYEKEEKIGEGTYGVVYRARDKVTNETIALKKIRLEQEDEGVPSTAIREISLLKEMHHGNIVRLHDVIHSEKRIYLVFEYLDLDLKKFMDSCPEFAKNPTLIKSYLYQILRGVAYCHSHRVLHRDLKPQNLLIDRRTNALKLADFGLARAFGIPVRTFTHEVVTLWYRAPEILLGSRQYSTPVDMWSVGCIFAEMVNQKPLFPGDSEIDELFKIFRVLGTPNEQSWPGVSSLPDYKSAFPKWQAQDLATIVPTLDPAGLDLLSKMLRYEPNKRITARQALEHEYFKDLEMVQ

B1: empty pBDGal4 vector (Gal4 binding domain alone) (other, UniProt P04386 1-148, looked up)
chain: MKLLSSIEQACDICRLKKLKCSKEKPKCAKCLKNNWECRYSPKTKRSPLTRAHLTEVESRLERLEQLFLLIFPREDLDMILKMDSLQDIKALLTGLFVQDNVNKDAVTDRLASVETDMPLTLRQHRISATSSSEESSNKGQRQLTVSI
notes: Negative control in the yeast two-hybrid assay
B1: the binding result in experiment [1] and in experiment [2] was “no binding” throughout.

B2: empty prey pADGal4 vector (Gal4 activation domain alone) (other, UniProt P04386 761-881, looked up)
chain: PSALFGGANFNQSGNIADSSLSFTFTNSSNGPNLITTQTNSQALSQPIASSNVHDNFMNNEITASKIDDGNNSKPLSPGWTDQTAYNAFGITTGMFNTTTMDDVYNYLFDDEDTPPNPKKE
notes: as for B1
As for B2, the binding result in experiment [3] and in experiment [4] was “no binding” each time.
